Laboratory results published in US20250152727A1.

Molecular target: recombinant human TfR1 (human) (UniProt P02786)
Assay: SPR (Carterra LSA), IgG captured on chip, TfR1 as analyte, 25 C

Sequence of recombinant human TfR1 (human) (P02786 89-760 limits assumed): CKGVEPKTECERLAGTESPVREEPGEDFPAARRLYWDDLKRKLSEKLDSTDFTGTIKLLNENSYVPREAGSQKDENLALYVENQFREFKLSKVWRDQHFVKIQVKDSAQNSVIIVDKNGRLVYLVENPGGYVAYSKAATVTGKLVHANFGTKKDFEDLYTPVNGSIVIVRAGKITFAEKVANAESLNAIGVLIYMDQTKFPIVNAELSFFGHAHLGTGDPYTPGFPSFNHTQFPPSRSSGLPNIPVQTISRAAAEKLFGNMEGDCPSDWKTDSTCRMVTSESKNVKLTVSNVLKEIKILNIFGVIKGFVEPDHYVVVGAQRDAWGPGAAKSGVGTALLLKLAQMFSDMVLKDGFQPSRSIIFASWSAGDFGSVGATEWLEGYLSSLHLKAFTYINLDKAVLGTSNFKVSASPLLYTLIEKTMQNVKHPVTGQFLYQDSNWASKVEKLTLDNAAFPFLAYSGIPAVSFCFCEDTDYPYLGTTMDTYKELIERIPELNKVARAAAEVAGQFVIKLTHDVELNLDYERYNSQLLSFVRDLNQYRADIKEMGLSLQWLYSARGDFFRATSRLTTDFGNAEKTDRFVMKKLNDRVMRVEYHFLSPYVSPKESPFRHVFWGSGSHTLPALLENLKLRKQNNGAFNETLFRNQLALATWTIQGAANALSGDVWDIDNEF

Substance: OKT9 mIgG (antibody)
- Kd: 0.536 nM
